Literature values in publication PMC11111649.

Target: Angiotensin II (Homo sapiens) (UniProt P01019)
UniProt P01019, sequence (P01019 whole entry, looked up): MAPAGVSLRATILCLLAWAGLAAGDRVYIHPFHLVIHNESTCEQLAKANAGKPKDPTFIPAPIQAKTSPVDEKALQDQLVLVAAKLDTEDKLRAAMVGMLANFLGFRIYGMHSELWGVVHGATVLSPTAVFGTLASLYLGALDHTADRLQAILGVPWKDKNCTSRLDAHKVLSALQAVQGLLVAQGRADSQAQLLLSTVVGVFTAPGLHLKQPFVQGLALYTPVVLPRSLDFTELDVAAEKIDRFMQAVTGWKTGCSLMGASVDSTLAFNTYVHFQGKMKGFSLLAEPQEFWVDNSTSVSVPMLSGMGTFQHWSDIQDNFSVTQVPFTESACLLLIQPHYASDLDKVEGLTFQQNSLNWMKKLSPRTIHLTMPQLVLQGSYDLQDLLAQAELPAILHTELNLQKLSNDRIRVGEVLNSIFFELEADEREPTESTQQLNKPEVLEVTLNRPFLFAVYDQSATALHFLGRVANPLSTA

Kd: 1 nM
Substance: AT1R (from UniProt P30556)
